These results are taken from the supplement of paper PMC9112550, “Optimization of the antimicrobial peptide Bac7 by deep mutational scanning” (BMC Biology, 2022).
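Note: peptides expressed intracellularly from a pBAD plasmid library in pooled LB shake-flask culture, induced with 0.3% L-arabinose, DNA abundance read by NGS, three biological replicates, DESeq2 with apeglm shrinkage.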

The data set relates to Escherichia coli TOP10. Briefly: shrunken log2 fold change of peptide-encoding DNA abundance (4.5 h post-induction vs induction); higher = less antimicrobial activity (less host growth inhibition). Conditions: time post-induction: 4.5 h; library: site-saturation at positions 5, 18, 19, 20.
In the case of RRIRNRPPRLPRPRPRPRHPPRP, the “shrunken log2 fold change” value was found to be 0.136.
Consider RRIRCRPPRLPRPRPRPEWDPRP, for which the “shrunken log2 fold change” value was found to be 0.309.
Under RRIRKRPPRLPRPRPRPYARPRP stands -0.0148; under RRIRDRPPRLPRPRPRPCEFPRP, 0.013; under RRIRPRPPRLPRPRPRPRIHPRP, -0.00548.
Consider RRIRDRPPRLPRPRPRPMWQPRP, for which the “shrunken log2 fold change” value was found to be 0.00699.
Consider RRIRTRPPRLPRPRPRPKEPPRP, for which the “shrunken log2 fold change” value was -0.00172.
RRIRVRPPRLPRPRPRPPSYPRP: the “shrunken log2 fold change” value was found to be 0.00807.
Under RRIRPRPPRLPRPRPRPCFMPRP stands -0.269; under RRIRMRPPRLPRPRPRPRENPRP, 0.265.
Under RRIRHRPPRLPRPRPRPIGSPRP stands -0.0183; under RRIRRRPPRLPRPRPRPWWCPRP, 4.82; under RRIRSRPPRLPRPRPRPMRVPRP, 0.691.
Under RRIRTRPPRLPRPRPRPHIQPRP stands -0.0986; under RRIRIRPPRLPRPRPRPKKVPRP, -0.291; under RRIRGRPPRLPRPRPRPEYEPRP, 0.165.
Turning to RRIRYRPPRLPRPRPRPNNTPRP, the “shrunken log2 fold change” value is -1.32.
RRIRNRPPRLPRPRPRPYFWPRP: the “shrunken log2 fold change” value was -0.0871.
Under RRIRQRPPRLPRPRPRPRRWPRP stands 0.326.
Under RRIRVRPPRLPRPRPRPVDLPRP stands 0.0988; under RRIRMRPPRLPRPRPRPPQEPRP, 0.161; under RRIRCRPPRLPRPRPRPIVCPRP, -0.272.
Under RRIRRRPPRLPRPRPRPAMSPRP stands 0.157; under RRIRNRPPRLPRPRPRPSTWPRP, -0.332.
In the case of RRIRNRPPRLPRPRPRPDGEPRP, the “shrunken log2 fold change” value was -0.00776.
Consider RRIRTRPPRLPRPRPRPQCQPRP, for which the “shrunken log2 fold change” value is -0.0883.
Under RRIRERPPRLPRPRPRPLYSPRP stands -0.54; under RRIRPRPPRLPRPRPRPRPNPRP, 0.505.
As for RRIRERPPRLPRPRPRPKHGPRP, the “shrunken log2 fold change” value is -0.017.
Under RRIRERPPRLPRPRPRPGTAPRP stands -0.0769.
Under RRIRERPPRLPRPRPRPHADPRP stands 0.0454; under RRIRHRPPRLPRPRPRPTGIPRP, -0.0208; under RRIRERPPRLPRPRPRPDNGPRP, -0.0776.
RRIRLRPPRLPRPRPRPLPGPRP: the “shrunken log2 fold change” value amounted to 0.781.
In the case of RRIRFRPPRLPRPRPRPGHMPRP, the “shrunken log2 fold change” value is -0.0911.
Under RRIRFRPPRLPRPRPRPHASPRP stands -0.259.
Under RRIRIRPPRLPRPRPRPWVSPRP stands -0.119.
Take RRIRDRPPRLPRPRPRPEHWPRP: the “shrunken log2 fold change” value stood at 0.598.
Under RRIRARPPRLPRPRPRPWYTPRP stands -0.514; under RRIRSRPPRLPRPRPRPCHTPRP, 0.00383.
Regarding RRIRARPPRLPRPRPRPQCLPRP, the “shrunken log2 fold change” value worked out at 0.23.
Turning to RRIRDRPPRLPRPRPRPWVIPRP, the “shrunken log2 fold change” value was -0.00136.
For RRIRYRPPRLPRPRPRPGHEPRP, the “shrunken log2 fold change” value is -0.18.
Under RRIRHRPPRLPRPRPRPKYNPRP stands -0.892; under RRIRDRPPRLPRPRPRPDGPPRP, 0.0462; under RRIRKRPPRLPRPRPRPQIRPRP, -0.0406.
As for RRIRCRPPRLPRPRPRPSSEPRP, the “shrunken log2 fold change” value is -0.284.
Under RRIRVRPPRLPRPRPRPSGGPRP stands 0.104; under RRIRCRPPRLPRPRPRPICSPRP, 0.0973.
Consider RRIRERPPRLPRPRPRPGPNPRP, for which the “shrunken log2 fold change” value was -0.106.
Under RRIRHRPPRLPRPRPRPGLFPRP stands -0.0985; under RRIRDRPPRLPRPRPRPIQYPRP, -0.0088; under RRIRGRPPRLPRPRPRPKRVPRP, 0.198.
Under RRIRKRPPRLPRPRPRPKGQPRP stands 0.00959.
On to RRIRMRPPRLPRPRPRPVREPRP, for which the “shrunken log2 fold change” value is 1.19.
Under RRIRLRPPRLPRPRPRPMCVPRP stands -0.231; under RRIRNRPPRLPRPRPRPGPQPRP, 0.0395.
Under RRIRWRPPRLPRPRPRPEISPRP stands -0.161; under RRIRDRPPRLPRPRPRPEDHPRP, 1.08.
Take RRIRIRPPRLPRPRPRPMMDPRP: the “shrunken log2 fold change” value is -0.132.
Under RRIRLRPPRLPRPRPRPDQWPRP stands -0.158; under RRIRLRPPRLPRPRPRPHKQPRP, -0.0935; under RRIRIRPPRLPRPRPRPHAAPRP, -0.298.
Under RRIRARPPRLPRPRPRPFDFPRP stands 0.00925; under RRIRPRPPRLPRPRPRPIPCPRP, -0.172.
Under RRIRFRPPRLPRPRPRPMGYPRP stands -0.226.
Take RRIRDRPPRLPRPRPRPTPIPRP: the “shrunken log2 fold change” value came out at 0.103.
Under RRIRVRPPRLPRPRPRPWRRPRP stands 0.208; under RRIRDRPPRLPRPRPRPREWPRP, -0.00146; under RRIRLRPPRLPRPRPRPHTIPRP, -0.165.
Turning to RRIRQRPPRLPRPRPRPCWTPRP, the “shrunken log2 fold change” value is -0.0267.
Turning to RRIRWRPPRLPRPRPRPNALPRP, the “shrunken log2 fold change” value stood at 0.15.
Under RRIRARPPRLPRPRPRPLFTPRP stands 0.0936.
Under RRIRARPPRLPRPRPRPSSFPRP stands -0.196; under RRIRRRPPRLPRPRPRPDRRPRP, 0.108; under RRIRYRPPRLPRPRPRPNFRPRP, -0.425.
Under RRIRTRPPRLPRPRPRPDYYPRP stands -0.356; under RRIRSRPPRLPRPRPRPRSWPRP, 0.0511; under RRIRMRPPRLPRPRPRPTVEPRP, 3.68.
As to RRIRGRPPRLPRPRPRPDLNPRP, the “shrunken log2 fold change” value was 0.843.
Under RRIRDRPPRLPRPRPRPDGVPRP stands -0.0199.
Under RRIRLRPPRLPRPRPRPPGEPRP stands 0.196.
In the case of RRIRDRPPRLPRPRPRPSDGPRP, the “shrunken log2 fold change” value is 0.166.
Under RRIRWRPPRLPRPRPRPPWKPRP stands 0.24.
Under RRIRWRPPRLPRPRPRPSMCPRP stands -0.16.
As to RRIRKRPPRLPRPRPRPFKQPRP, the “shrunken log2 fold change” value stood at 0.0339.
Under RRIRKRPPRLPRPRPRPCCRPRP stands 0.146; under RRIRWRPPRLPRPRPRPLCNPRP, 0.0306; under RRIRFRPPRLPRPRPRPGWCPRP, 0.109.
Under RRIRKRPPRLPRPRPRPSIIPRP stands -0.221; under RRIRHRPPRLPRPRPRPHEIPRP, -0.0135; under RRIRSRPPRLPRPRPRPWAAPRP, 0.327.
Under RRIRLRPPRLPRPRPRPNTKPRP stands -0.543; under RRIRYRPPRLPRPRPRPKWLPRP, -0.221.
Consider RRIRQRPPRLPRPRPRPCCTPRP, for which the “shrunken log2 fold change” value is -0.137.
Under RRIRMRPPRLPRPRPRPRHMPRP stands 0.418.
Under RRIRVRPPRLPRPRPRPSCFPRP stands -0.264.
Under RRIRMRPPRLPRPRPRPSDCPRP stands 0.206.
Turning to RRIRSRPPRLPRPRPRPGGEPRP, the “shrunken log2 fold change” value is 0.585.
Under RRIRFRPPRLPRPRPRPQCSPRP stands 0.0505; under RRIRNRPPRLPRPRPRPCVNPRP, -0.282; under RRIRTRPPRLPRPRPRPHCMPRP, -0.153.
With RRIRFRPPRLPRPRPRPSVLPRP, the “shrunken log2 fold change” value was -0.246.
Under RRIRWRPPRLPRPRPRPWPFPRP stands 0.481.
Under RRIRHRPPRLPRPRPRPDTRPRP stands -0.0709; under RRIRDRPPRLPRPRPRPAICPRP, 0.391; under RRIRIRPPRLPRPRPRPEGCPRP, -0.0356.
As to RRIRDRPPRLPRPRPRPADWPRP, the “shrunken log2 fold change” value is 0.305.
Under RRIRCRPPRLPRPRPRPPYHPRP stands -0.334; under RRIRHRPPRLPRPRPRPLTYPRP, -0.402.
Under RRIRARPPRLPRPRPRPNVIPRP stands -0.433; under RRIRMRPPRLPRPRPRPTAHPRP, 0.767.
RRIRYRPPRLPRPRPRPITDPRP: the “shrunken log2 fold change” value is -0.162.
Under RRIRNRPPRLPRPRPRPNMSPRP stands -0.0455.
As for RRIRMRPPRLPRPRPRPRIFPRP, the “shrunken log2 fold change” value is 0.011.
RRIRIRPPRLPRPRPRPYYYPRP: the “shrunken log2 fold change” value was -1.08.
Under RRIRQRPPRLPRPRPRPFIVPRP stands -0.136; under RRIRHRPPRLPRPRPRPRYIPRP, -0.528; under RRIRKRPPRLPRPRPRPDKAPRP, 0.0987.
Under RRIRCRPPRLPRPRPRPGSTPRP stands -0.474; under RRIRKRPPRLPRPRPRPTALPRP, 0.213; under RRIRNRPPRLPRPRPRPQLRPRP, 0.0493.
Under RRIRTRPPRLPRPRPRPYLKPRP stands -0.27.
RRIRERPPRLPRPRPRPWIYPRP: the “shrunken log2 fold change” value was 0.013.
Under RRIRWRPPRLPRPRPRPPMIPRP stands -0.103.
